Laboratory results: US20110014213A1 (JURIDICAL FDN THE CHEMO SERO THERAP RES INS, published 2011)

How the values were obtained:
hα9/mL1-EGFP = target: T1, hα9/mL1-EGFP (human, UniProt Q13797 30-1035); assay: Cell ELISA on transiently expressing CHO cells
T1 construct: an offset must be applied; also called L1 loop region variant of human α9-EGFP; not shown: EGFP from pEGFP-N1 vector (Clontech) fused to the C-terminal (cytoplasmic region)
T1 chain: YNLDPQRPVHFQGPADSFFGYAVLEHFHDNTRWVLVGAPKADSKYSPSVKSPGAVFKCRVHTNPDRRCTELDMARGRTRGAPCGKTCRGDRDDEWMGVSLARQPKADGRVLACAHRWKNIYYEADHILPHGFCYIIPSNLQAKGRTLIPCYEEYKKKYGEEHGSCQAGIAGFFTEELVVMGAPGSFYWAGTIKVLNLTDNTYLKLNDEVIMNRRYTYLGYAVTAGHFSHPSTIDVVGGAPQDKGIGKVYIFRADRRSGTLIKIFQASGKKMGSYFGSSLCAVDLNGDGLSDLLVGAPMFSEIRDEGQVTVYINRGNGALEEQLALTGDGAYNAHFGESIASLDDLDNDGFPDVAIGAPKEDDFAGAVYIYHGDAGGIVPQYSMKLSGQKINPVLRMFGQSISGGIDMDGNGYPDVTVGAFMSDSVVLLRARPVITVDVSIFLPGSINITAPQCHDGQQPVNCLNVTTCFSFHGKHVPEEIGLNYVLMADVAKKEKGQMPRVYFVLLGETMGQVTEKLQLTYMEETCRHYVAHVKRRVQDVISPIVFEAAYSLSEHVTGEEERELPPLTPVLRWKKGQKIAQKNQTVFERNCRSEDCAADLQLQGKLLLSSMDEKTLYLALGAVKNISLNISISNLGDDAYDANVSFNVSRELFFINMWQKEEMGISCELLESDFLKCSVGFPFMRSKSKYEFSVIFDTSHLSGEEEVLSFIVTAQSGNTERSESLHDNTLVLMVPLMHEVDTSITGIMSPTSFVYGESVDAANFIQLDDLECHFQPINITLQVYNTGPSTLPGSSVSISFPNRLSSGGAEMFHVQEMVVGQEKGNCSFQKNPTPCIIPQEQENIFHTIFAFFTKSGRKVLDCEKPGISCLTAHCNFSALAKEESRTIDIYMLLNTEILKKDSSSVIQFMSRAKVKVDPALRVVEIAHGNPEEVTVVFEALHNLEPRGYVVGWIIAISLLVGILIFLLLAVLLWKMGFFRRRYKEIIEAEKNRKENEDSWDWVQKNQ
Method: CHO/mα9 and CHO were seeded on a 96 well plate (costar) at 2×10⁴ cells/100 μL/well, and incubated overnight at 37° C., 5% CO₂. The medium was suctioned, and the cells were washed with PBS, and reacted with phage antibody diluted with 1% BSA/PBS. The detection was performed by using horse-radish peroxidase (HRP)-labeled anti-M13 antibody (Amersham) and TMB (SIGMA) in combination. The absorbance at wavelengths 450 nm and 650 nm was measured by a microplate reader (Molecular Devices).
SW480/mα9, SW480/hα9 and SW480 were used as antigens, 1% BSA/PBS containing 5% FBS was used as a dilution solution, an HRP-labeled anti-mouse IgG antibody (ZYMED) was used for detection, and the rest was performed under the same conditions as in Example 4.
Next, analysis by Cell ELISA was performed. Various cells after about 24 hr from gene transfection were collected, and seeded on a 96 well plate at 2×10⁴ cells/100 μL/well. The rest was performed under the same conditions as in Example 11.

mouse α4 integrin = target: T2, mouse α4 integrin (mouse, UniProt Q00651 41-1039); assay: flow cytometry on CHO/mα4
T2 construct: whole, on cells; Control antigen; also called CHO/mα4
T2 sequence (looked up): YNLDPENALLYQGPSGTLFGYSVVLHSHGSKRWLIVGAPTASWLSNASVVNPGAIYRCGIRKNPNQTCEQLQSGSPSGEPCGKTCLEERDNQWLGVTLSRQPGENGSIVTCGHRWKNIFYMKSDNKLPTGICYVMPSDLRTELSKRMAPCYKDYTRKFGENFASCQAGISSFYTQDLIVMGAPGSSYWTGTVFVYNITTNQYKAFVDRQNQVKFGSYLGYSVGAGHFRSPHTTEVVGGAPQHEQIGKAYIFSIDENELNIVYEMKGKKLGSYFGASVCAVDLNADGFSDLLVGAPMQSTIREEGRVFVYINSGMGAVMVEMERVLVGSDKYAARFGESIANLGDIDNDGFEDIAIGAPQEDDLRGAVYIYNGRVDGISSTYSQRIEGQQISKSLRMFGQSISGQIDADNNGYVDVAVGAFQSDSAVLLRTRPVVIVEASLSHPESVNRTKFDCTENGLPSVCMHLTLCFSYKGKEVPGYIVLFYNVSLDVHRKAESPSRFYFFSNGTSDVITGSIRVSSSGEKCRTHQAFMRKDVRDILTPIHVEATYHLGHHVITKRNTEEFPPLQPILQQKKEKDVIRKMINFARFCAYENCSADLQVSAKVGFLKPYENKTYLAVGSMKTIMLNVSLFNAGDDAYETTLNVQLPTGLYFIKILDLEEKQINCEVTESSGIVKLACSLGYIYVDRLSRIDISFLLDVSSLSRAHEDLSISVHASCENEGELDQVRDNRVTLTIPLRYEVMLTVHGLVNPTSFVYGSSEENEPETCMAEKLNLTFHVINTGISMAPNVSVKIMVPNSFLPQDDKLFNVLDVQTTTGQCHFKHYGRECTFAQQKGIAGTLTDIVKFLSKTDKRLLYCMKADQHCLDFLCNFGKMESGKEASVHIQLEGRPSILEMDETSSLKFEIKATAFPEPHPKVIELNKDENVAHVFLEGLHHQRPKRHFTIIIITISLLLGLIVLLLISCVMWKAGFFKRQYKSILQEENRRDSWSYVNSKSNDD
Method: As a result, the reactivity with mouse α9 and human α9 was confirmed. Although the reactivity with each of CHO and CHO/mα4 was also assessed in the same manner, the reactivity with mouse α4 was not observed (FIG. 6).

binding result (hα9/mL1-EGFP): binds | binding result (mouse α4 integrin): no binding
B1: MA9-413 scFv-Fc (Fc fusion)
scFv: EVQLVESGGGVVRPGGSLRLSCAASGFAFGDYGMSWVRQAPGKGLEWVSGINWNGGSTGYADSVKGRFTTSRDNAKNSLYLQMNSLRAEDTALYYCARDENYDILTGYYYYGMDVWGQGTTVTVSSGGGGSGGGGSGGGGSQSVVTQPPSVSAAPGQKVTISCSGSSSNIGNNYVSWYQQLPGTAPKLLIYDNNKRPSGIPDRFSASKSGTSATLGITGLQTGDEADYYCGTWDSSLTVWAFGGGTKLTVLG
notes: Divalent scFv-Fc with mouse IgG1 Fc, expressed in CHO-DG44; also called ANM-2; not shown: Fc region of mouse IgG1 and its junction to the scFv
